Data from patent publication US20220380446A1 (ABL BIO, published 2022).

Experiments:
[1] = target: human α-synuclein oligomers (Dopamine HCL Stabilized Human Recombinant Alpha Synuclein Oligomers, StressMarq … (human, UniProt P37840 1-140)); assay: sandwich ELISA, antibody coated, oligomeric α-syn added, 7B7-biotin detection
Procedure: Human α-syn oligomers from StressMarq (Dopamine HCL Stabilized Human Recombinant Alpha Synuclein Oligomers, SPR-466) was used as the oligomeric α-syn in the assay.
In this sandwich ELISA, test antibodies were diluted with PBS by five-fold serial dilution from 80 nM to 0.005 nM. The serially diluted antibodies were added to a 96-well plate at 100 μL/well for coating. The plate was sealed and incubated at 4° C. for 16 hours. After washing with PBS-T five times, the plate was blocked with 5% BSA in PBS 200 μL/well at 37° C. for 2 hours. After washing with PBS-T five times, oligomeric α-syn (2 μg/mL, 100 μL/well in 2% BSA in PBS) was added and incubated at 37° C. for 2 hours. After washing with PBS-T five times, 7B7-biotin antibody (1 μg/mL, 100 μL/well, in 2% BSA in PBS) were added and incubated at 37° C. for 2 hours. After washing with PBS-T five times, the plate was incubated with Streptavidin-HRP in 2% BSA in PBS (1:5000, 1 mg/mL stock, 20 ng/well, 100 μL/well) at 37° C. for 1 hour. After washing with PBS-T five times, TMB (100 μL/well) was added and incubated at RT for 5 minutes. The reaction was stopped by the addition of 0.5 N H₂SO₄ (50 μL/well).

[2] = target: T1, human α-synuclein pre-formed fibrils (Human Alpha Synuclein Pre-formed Fibrils Type II, StressMarq SPR-317) (human, UniProt P37840 1-140); assay: SPR Biacore 'as described above', antibody captured, α-syn PFF analyte, 1:1 model
[3] = target: T1, human α-synuclein pre-formed fibrils …; assay: SPR Biacore T200, antibody captured on Protein A chip, α-syn PFF analyte, 1:1 model
Procedure: The equipment used was Biacore® (GE Healthcare, Model T200). Protein A (GE Healthcare, Cat: 29-1275-56) was used as a chip, 10 mM glycine-HCl pH 1.5 (GE Healthcare, Cat: BR-1003-54) was used as a regeneration buffer, and HBS-EP was used as a running buffer and an analyte dilution and sample dilution buffer. […] A capture phase was carried out at a contact time of 60 seconds and a flow rate of 30 μL/min was used for a stabilization period of 60 seconds, with the target resonance units (RU) of fibril set to 10 (theoretical). In an association phase, the association time was set to 60 seconds and a flow rate was set to 60 μL/min. In a dissociation phase, the dissociation time was set to 180 seconds, and a flow rate was set to 60 μL/min. In a regeneration phase, the flow rate was set to 30 μL/min, and the regeneration time was set to 60 seconds. A 1:1 binding model was used for fitting, and the Biacore® T200 Evaluation software (GE Healthcare) was used for the evaluation.

[4] = target: T1, human α-synuclein pre-formed fibrils …; assay: SPR Biacore, antibody captured on anti-hFab CM3 chip, α-syn PFF analyte, single-cycle kinetics, 1:1 model
Procedure: (§1) The equipment used was Biacore®. Anti-hFab (Sigma, I5260-1ML) diluted in acetate buffer (pH 5.0) was immobilized on the surface of an CM3 chip (GE Healthcare) by amine coupling. […] All procedures in association and dissociation phases were done in single-cycle kinetics. A 1:1 binding model was used for fitting, and the Biacore® T200 Evaluation software was used for the evaluation.

[5] = target: T1, human α-synuclein pre-formed fibrils …; assay: SPR (Biacore), file name 'Main-ProA', α-syn PFF as analyte (sample PFF-1), single-cycle kinetics, 1:1 Binding fit, 25 °C; Run01
[6] = target: T1, human α-synuclein pre-formed fibrils …; assay: SPR (Biacore), file name 'Main-ProA', α-syn PFF as analyte (sample PFF-4), single-cycle kinetics, 1:1 Binding fit, 25 °C; Run02
[7] = target: T1, human α-synuclein pre-formed fibrils …; assay: SPR (Biacore), antibody captured on anti-hFab CM3 chip, α-syn PFF as analyte (sample PFF-1), single-cycle kinetics, 1:1 Binding fit, 25 °C; Run1
Procedure: as §1

[8] = target: T1, human α-synuclein pre-formed fibrils …; assay: SPR (Biacore), antibody captured on anti-hFab CM3 chip, α-syn PFF as analyte (sample PFF-2), single-cycle kinetics, 1:1 Binding fit, 25 °C; Run2
Procedure: as §1

[9] = target: monomeric human α-synuclein (Active Human Recombinant Alpha Synuclein Protein Monomer type II, StressMarq … (human, UniProt P37840 1-140)); assay: SPR (Biacore T200), antibody captured on Protein A chip, α-syn monomer as analyte (Monomer-4), 25 °C; Run02; number of the software's 1:1 fit printed under a sensorgram without binding response (the filing's Table 18: No-binding)
Procedure: The equipment used was Biacore® T200. The anti-α-syn monospecific antibody or the anti-α-syn/IGF1R bispecific antibody was diluted with 1×HBS-EPT. […] Each diluted monomer sample was injected at 60 μL/min onto the Protein A chip surface for 60 seconds, followed by washing with 1×HBS-EP buffer. The dissociation rate was evaluated for 180 seconds. All procedures in association/dissociation phases were done in single cycle kinetics. The chip surface was regenerated by injecting 10 mM glycine-HCl pH 1.5 (GE Healthcare) onto the chip surface for 60 seconds at 30 μL/min, removing residual α-syn monomer/antibody complex. A 1:1 binding model was used for fitting, and the Biacore® T200 Evaluation software was used for evaluation.

EC50 [1]: 3620 pM | Saturation point [1]: 3.18 | Kd [2]: 25.1 pM | koff [2]: 0.000345 s⁻¹ | kon [2]: 1.4e+07 M⁻¹ s⁻¹ | Kd [3]: 28.1 pM | koff [3]: 0.000322 s⁻¹ | kon [3]: 1.14e+07 M⁻¹ s⁻¹ | Kd [4]: 37.9 pM | koff [4]: 0.000706 s⁻¹ | kon [4]: 1.87e+07 M⁻¹ s⁻¹ | koff [5]: 0.000472 s⁻¹ | kon [5]: 1.35e+07 M⁻¹ s⁻¹ | koff [6]: 0.000219 s⁻¹ | kon [6]: 1.44e+07 M⁻¹ s⁻¹ | koff [7]: 0.00067 s⁻¹ | kon [7]: 1.91e+07 M⁻¹ s⁻¹ | koff [8]: 0.000743 s⁻¹ | kon [8]: 1.83e+07 M⁻¹ s⁻¹ | koff [9]: 0.537 s⁻¹ | kon [9]: 46900 M⁻¹ s⁻¹
B1: hu1E4(V1_VL1) x Grabody B (bispecific antibody, human IgG1, kappa)
heavy 1: not shown
heavy 2: not shown
light: DIVMTQTPLSLSVTPGQPASISCRSSQSLVHSNGNTYLHWYLQKPGQSPQLLIYKVSNRFSGVPDRFSGSGSGTDFTLKISRVEAEDVGVYYCSQSTHVPRTFGQGTKLEIKRTVAAPSVFIFPPSDEQLKSGTASVVCLLNNFYPREAKVQWKVDNALQSGNSQESVTEQDSKDSTYSLSSTLTLSKADYEKHKVYACEVTHQGLSSPVTKSFNRGEC
notes: Anti-α-syn/IGF1R bispecific; hole heavy chain (M428L) carries the anti-IGF1R scFv Grabody B at its C-terminus through a (G4S)3 linker; knob heavy chain (M428L) without scFv; also called hu1E4(V1 VL1) × Grabody B; 1E4(Ver.1_VL1) × Grabody B
